The record followed here is patent US20120114659A1 (published 2012).

For the test, the target named is T1, human NPRA on HEK cells loaded with BNP (human, UniProt P16860 103-134).
T1 sequence: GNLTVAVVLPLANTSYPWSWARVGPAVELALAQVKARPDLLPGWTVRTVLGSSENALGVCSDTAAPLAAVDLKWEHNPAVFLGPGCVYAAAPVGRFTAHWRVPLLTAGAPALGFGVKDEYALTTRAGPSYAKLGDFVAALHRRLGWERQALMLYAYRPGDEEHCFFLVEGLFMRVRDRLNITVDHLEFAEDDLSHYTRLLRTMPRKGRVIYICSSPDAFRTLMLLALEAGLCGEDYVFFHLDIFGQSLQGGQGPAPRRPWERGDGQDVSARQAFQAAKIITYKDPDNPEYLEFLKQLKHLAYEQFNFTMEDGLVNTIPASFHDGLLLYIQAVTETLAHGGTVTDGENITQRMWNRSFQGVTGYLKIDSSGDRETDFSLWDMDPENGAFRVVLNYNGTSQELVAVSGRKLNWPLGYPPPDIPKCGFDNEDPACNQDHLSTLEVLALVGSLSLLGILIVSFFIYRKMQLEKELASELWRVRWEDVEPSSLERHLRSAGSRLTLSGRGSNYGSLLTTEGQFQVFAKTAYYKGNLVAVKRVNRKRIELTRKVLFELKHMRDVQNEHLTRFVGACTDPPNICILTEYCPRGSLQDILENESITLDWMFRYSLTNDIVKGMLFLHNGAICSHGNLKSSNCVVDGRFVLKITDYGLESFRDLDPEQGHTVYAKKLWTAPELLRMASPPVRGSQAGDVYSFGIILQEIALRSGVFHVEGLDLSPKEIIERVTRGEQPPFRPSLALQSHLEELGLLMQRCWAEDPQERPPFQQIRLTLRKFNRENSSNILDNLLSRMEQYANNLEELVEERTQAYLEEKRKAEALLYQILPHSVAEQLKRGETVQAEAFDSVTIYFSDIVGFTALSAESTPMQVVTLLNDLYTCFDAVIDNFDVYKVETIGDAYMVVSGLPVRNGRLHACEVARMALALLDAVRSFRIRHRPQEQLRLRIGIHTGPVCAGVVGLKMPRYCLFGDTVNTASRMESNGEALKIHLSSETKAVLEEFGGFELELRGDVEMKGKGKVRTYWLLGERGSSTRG
T1 sequence (peptide): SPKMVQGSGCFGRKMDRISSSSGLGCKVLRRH
The experiment in a line: cell-based or functional assay.

B1: 5064 Fab (Fab, V domains shown)
VH: QVQLQQSGPGLVKPSQTLSLTCAISGDSVSSRSASWSWIRQSPGRGLEWLGRIYYRSKWYNDYAVSVKSRITINPDTSKNQFSLQLNSVTPEDTAVYYCARMDVPSFRYFDVWGQGTLVTVSS
VL: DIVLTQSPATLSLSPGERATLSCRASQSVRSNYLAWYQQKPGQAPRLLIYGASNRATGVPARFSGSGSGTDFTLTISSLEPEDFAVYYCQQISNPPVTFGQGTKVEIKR
For B1, the “fold decrease of the EC50 of BNP (cGMP, HEK NPRA cells, 400 nM Fab)” value came out at 2 fold.
